Results as given in the RNAGym collection of RNA variant scans (doi:10.1073/pnas.2313332121).

B1: TPR t1 (parent)
chain: GACCAAUCUGCCCUCAGAGCUCGAGAACAUCUUCGGAUGCAGAGGAGGCAGGCUUCGGUGGCGCGAUAGCGCCAACGUCCUCAACCUCCAAUGCAUCCCACCACAUGAUGAUGCCUGAAGAGCCUUGGUUUUUUG

Variants of: B1
Test: polymerase ribozyme fitness, log enrichment relative to wild type (log ratio); higher = more active; in vitro selection for triplet polymerase activity
Method in brief: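 PCR was used to build mutant libraries for each subunit of a heterodimeric triplet polymerase ribozyme, which were then transcribed. A single in vitro selection round, in triplicate, used a frozen incubation at −7 °C and recovered extended constructs by gel excision, streptavidin beads and RT-PCR. Fitness is the logarithm of genotype enrichment relative to wild-type enrichment, averaged over replicates with inverse-variance weights. The logarithm is base 2, and after Illumina sequencing only genotypes with ≥10 input reads and ≥1 read per output were kept.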

Point of comparison: GACCAAUCUGCCCUCAGAGCUCGAGAACAUCUUCGGAUGCAGAGGAGGCAGGCUUCGGUGGCGCGAUAGAGCCAACGUCCUCAACCUCCAAUGCAUCCCACCACAUGAUGAUGCCUAAAGAGCCUUGGUUUUUUG, “polymerase ribozyme fitness (log ratio)” value -3.29. Against it:
- GACCAAUCUGCCCUCAGAGCUCGAGAACAUCUUCGGAUGCAGAGGAGGCAGGCUUCGGUGGCGCGAUAGCGACAACGUCCUCAACCUCCAAAGCAUCCCACCACAUGAUGAUGCCUGAAGUGCCGUGGUUUUUUG — higher, -1.7
- GACCAAUCUGCCCUCAGAGCUCGAGAACAUCUUCGGAUGCAAAGGAGGUAGGCUUCGGUGGCGCGAUAGCGCCAACGUCCUCAACCUCCAAUGCAUCCCACCACAUGAUGACGCCUGAAGAGCCUUGGUUUUUUG — higher, -0.387
- GACCGAUCUGCCCUCAGAGCUCGAGAACAUCUUCGGAUGCAGAGGAGGCAGGCUUCGGUGGCGCGAUAGCGCCAACGUCCUCAACCUCCAAUGCAUCCCACCACAUGAGGAUGCCUGAAGAGGCUUGGUCUUUUG — lower, -4.03
- GACCAAUCUGCCCUCAGAGCUCGAGAACAUCUUCGGAUGCAGAGGAGGCAGGCUUCGGUGGCGCGCUAGCGCCAACGUCCUCAACCUCAAAUGCAUCCCACCACAUGAUGAUGCCUUAAGAGCCUUGGUUUUUUG — lower, -6.24
- GACCAAUCUGGCCUCAUAGCUCGAGAACAUCUUCGGAUGCAGAGGAGGCAGGCUUCGGUGGCGCGAUAGCGCCAACGUCCUCAACCUCCACUGCAUCCCACCACAUGAUGAUGCCUAAAGAGCCUUGGUUUUUUG — higher, -1.55
- GACCAAUUUGCCCUCAGAGCUCGAGAACAUCUUCGGAUGCAGAGGAGGCAGGCUUCGGUGGCGCGAUAGCGCCAACGUCCACAGCCUCCAAUGCAUCCCACCACAUGAUGAUGCCUGAAGAGCCUUGGUUUUUUG — higher, -0.331
- GACCAAUCUGCCCUCAGAGCUCGAGAACAUCUUCGGAUGCAGAGGAUGCAGGCUUGGGUGGCGCGAUACCGCCAAAGUCCUCAACCUCCAAUGCAUCCCACCACAUGAUGAUGCCUGAGGAGCCUUGGCUUUUUG — lower, -7.91
- GACCAAUAUGCCCUCAGAGCUCGAGAACAUCUUCGGAUGCAGAGGAGGCAGGCUUCGGUGGCGCGAUAGCGCCAACGUCCUCAACCUCCAAUCCAUCCCCCCACAUGAUGAUGCUUGAAGAGCCUUGGUUUUUUG — lower, -4.5
- GACCAAUCUGCCCUCAGAGCACGAGAACAUCUUCGGAUGCAGAGGAGGCAGGCUUCGGUGGCGCGAUAGCGGCAACCUCCUCAAACUCCAAUGCAUCCCACCACAUGAUGAUGCCUGAAGAGCCUUGGUUUUUUG — within 0.2 log units, -3.48
- GACCAAUCUGCCUUCAGAGCUCGAGAACAUCUUCGGAUGCAGAGGAGGCAGGCUUCGGUGGCGCGCUAGCGCCAACGUCCUCAACCUCCAAUGCAUCCCACCACAAGAUGAUGCCUGAAGAGCCUUGGUUUUUUG — higher, -0.839
- GACCAAUCUGCCCUCAGAGCUCGAGAACAUCUUCGGAUGCAGAGGAGGCAGGCUUCGGUGGCGCGAUAGCGGCAACGUCCUCAACCUCCACUGCCUCCCACCACAUGAUGAUGCCUGAAGGGCCUUGCUUUUGUG — within 0.2 log units, -3.31
- GACCAAUCUGCCCUCAGAGCUCGAGAACAUCCUCGGAUGCAGAGGAGGCAGUCUUCGGUGGCGCGAUAGCGCCAACGUCCGCAACCUCCAAUGCAUCCCACCACAUGAUGAUGCCUGAAGAGCCUUGGUUUUUUG — lower, -4.15
- GACCAAUCUCCCCUCAGAGCUCGAGAACAUCUUCGGAUGCAGAGGAGGCAGGCUUCGGUGGAGCGAUAGCGCCAACGCCCUCAACCUCCAAUGCAUCCCACCACAUGAUGAUGCCUGAAGAGCCUUGGUUUUUUG — higher, -1.58
- GACCAAUCUGCCCUCAGAGCUCGAGAACAUCUUCGGAUGCAGAGGAGGCAGCGUUCGGUGGCGCGAUGGCGCCAACAUCCACAACCUCCAAUGCAUCUCACCACAUGAUGAUGCCUGAAGAGCCUUGGUUUUUUG — lower, -5.4
- GACCAAUCUGCCCUCAGAGCUCGAGAACAUCUUCGGCUGCAGAGGAGGCAGGCUUCUGUGGCGCGAUGGCGCCAACGUCCUCAACCUCCAAUGCAUCCCACCACAUGAUGAUGCCUGAAGAGCCUUGGUUUUUUG — lower, -3.57
- GACCAAUCUGCCCUCAGCGCUCGAGAACAUCUUCGGAUGCAGAGGAGGCAGGCUUUGGUGGCGCGAUAGCGCCAACGUCCUCAACCUCCAAUGCAUCCCACCACAUGAUGAUGCCUGAAGAGCCUUGGUUUUUUG — higher, -2.56
- GACCAAUCUGCCCUCAGAGCUCGAGAACAUCUUCGGAUGCAGAGGAGGCAGGCUUCGGUGGCGCGAUAGCGCCAACGUCCUCAACCUUCAAUGCAUACCACCACAUGAUGAUGCCUGAAGAGCCUUGGUUUUUUG — lower, -4.84
- GACCAAUCUGCCCUCAGAGCUCGAGAACAUCUUCGGAUGCAGAGGAGGCGGGAUUCGGUGGCGCGAUAGCGCUAACGUCCUCAACCUCCAAUGCAUCCCACCACAUGAUGAUGCCUGAAGAGCCUUGGUUUUUUG — higher, 0.0786
- GACCAAUCUGCCCUCAGUGCUCGAGAACAUCUUCGGAUGCAGAGGAGGCAGGCUUCGGUGGCGCGAUAGCGCCAACGUCCUCAACCUCCAAUGCAUCCCACCACAUGAUGAUGCCUGAAGAGCCUUGGGUUUUUG — lower, -3.92
- GACCAAUCUGCCCUCAGAGUUCGAGAACAUCUUCGGAUGCAGAGGUGGCAGGCUUCGGUGGCGCGAUAGCGCCAACGUCCUCAACCUCUAAUGCAUCCCACCACAUGAUGAUGCCUGAAGAGCCUUGGUUUUUUG — within 0.2 log units, -3.4
- GACCAAUCGGCCCUCAGAGCUCGAGAACAUCUUCGGAUGCAGAGGAGGCAGGCUUCGGCGGCGCGAUAGCGCCAACGUCCUCAACCUCCAAUGCAUCCCAUCACAUGAUGAUGCCUGAAGAGCCUUGGUUUUUUG — higher, -0.449
- GACCAAUCUGCCCCCAGAGCUCGAGAUCAUCUUCGGAUGCAGAUGAGGAAGGCUUCGGUGGCGCGAUAGCGCCAACGUCCUCAACCUCCAAUGUAUCCCACCACAUGAUGAUGCCUCAAGAGCCUUCGUUUUUUG — lower, -7.98
- GACCAAUCAGCCCUCAGAGCUCGAGAACAUCUUCGGAUGCAGAGGAGGCAGGCUUCGGUGGCGCGAUAGCGCCAACGUCCUCAACCUCCAAUGCAUCCCAGCACAUGAUGAUGCCUGAAGAGCCUUGGUUUUUUG — higher, -1.55
- GACCAAUCUGCCCUCAGAGCUCGAGAACAUCUUCGGAUCCAGAGGAGGCAGGCUUCGGUGGCGCGAUAGCGCCAACGCCCUCAACCUCCAAUGCAUCCCACCACAUGAUGAUGCCUGAAGAGCCUUGGUUUUUUG — higher, -1.14
- GACCAAUAUGCCCUGAGAGCUCGAGAACUUCUUCGGAUGCAGAGGAGGCAGGCUUCGGUGGCGCGAUAGCGCCAACGUCCUCAACCUCCAAUGCAUCCCACCACAUGAUGAUGCCUGAAGAGCCUUGGUUUUUUG — higher, -2.66
- GACCAAUCUGCCCUCAGAGCUCGAGAACCUCUUCGGAUGCAGAGGAGGCAGGCUUCGGUGGCGCGAUAGCGCCAACGUCCUCAACCUCCAAUGCAUCCCACCACAUGAUGAUGCCUGAAGAGCCUUGGUCUUUUG — higher, -2.27
- GACCAAUCUACCUUCAGAGCUCGAGAACAUCUUCGGAUGCAGAGGAGGCAGGCUUCGGUGGCGCGAUAGCGCCAACGUCCUCAACCUCCAAUGCAUCCCACCACAUGAUGAUGCCUGAAGAGCCUUGGUUUUUUG — higher, 0.219
- GACCAAUCUGCCCUCAGAGCUCGAGAACAUCUUCGGAUGCAGAGGAGGCAGGUUUCGGUGGCGCGAUAGCGUCAACGUCCUCAACCGCCAAUGCAUCCCACCACAUGAUGAUGCCUCAAGAGCCUUGGUUUUUUG — lower, -3.81
- GACCAAUCUGCCCUCAGAGCUCGAGAACAUCUUCGGAUGCAGAGGAGGCAGGCUUCGGUGCCGCGAUAGCGCCAACGUCCUCAACCUCCAAUGCAUCCCACCACAUGAUGAUGCCUGAAGAGCCUUGGUUUAUUG — higher, -1.81
- GACCAAUCUGCCCUCAGAGCUCGACAACAUCUUCGGAUGCAGAGGAGUCAGGCUUCGGUGGCGCGAUAGCGGCAACGUCCUCAACGUCCAAUGCAUCCCUCAACAUGAUGAUGCCUUAGGAGCCUUGGUUUUUUG — lower, -7.7
- GACCAAUCUGCCCUCAGAGCUCGAGAACAUCUUCGUAUGCAGAGGAGGCAGGCUUCGGUGGCGCGAUCGUGCCAACGUCCUCAACCACCAAUGCAUCCCACCACAUGAUGAUGCCUUAAGAGCCUUGGUUUUUUG — lower, -5.69
- GACCAAUAUGCCCUCCGAGCUCGAGAACAUCUUCGGAUUCAGAGGAGGCAGGCUUCGGUGGCGCGAUAGCGCCAACGUCCUCAACCUCCAAUGCAUCCCACAACAUGAUGAUGCCUGAAGAGCCUUGGUUUUUUG — lower, -4.53
- GACCAAUCUGACCUCAGAGCUGGAGAACAUCUUCGGAUGCAGAGGAGACAGGCUUCGGUGGCGCGAUAGCGCCAACGUCCUCAACCUCCAAUGCAUCCCACCACAUGAUGAUGCCUGAGGAGCCUUGGUUUUUUG — within 0.2 log units, -3.23
- GACCAAUCUGCUCUCAGAGCUCGAGAACAUCUUCGGAUGCAGAGGAGGCUGGCUUCGGUGGCGCGAUAGCGCCAACGUCCUCAACCUCCAAUGCAUCCCACCACAUGAUGAUGCUUGAAGAGCCUUGGUUUUUUG — within 0.2 log units, -3.47
- GACCAAUCUGCCCUCAGAGCUCGAGAACAUCUUCGGAUGCAGAGGAGGCAGGCUUCGGUGGCGCGAUAGCGCCAACGUCCUCAACCUCCAAUGCAUCCCACCACAUGCUGAUGCCUGAAGAGACUUGGUUUUUUG — lower, -4.12
- GAUCAAUCUGCCCUGAGAGCUCGAGAACAUCUUCGGAUGCAGAGGAGGCAGGCUUCGGUGGCGCGAUAGCGACAACGUCCUCAACCUCCAAUGCAUCCCACCACAUGAUGAUGCCUGAAGAGCCUUGGUUUUUUG — higher, -3.04
- GACCAAUCUGCCCUCAGAGCUCGAGAACAUCUUCGGAUGCAGCGGAGGCAGGCUUCGGUGGCCCGAUAGCGCCAACGUCCUCAACCUCCAAUGCAUCCCACAACAUGAUGAUGCCUGAAGUGUCUUGGUUUUUUG — lower, -5.76
- GACCAAUGUGCCCUCAGAGCUGGAGAACAUCUUCGGAUGCAGAGGAGGCAGGCUUCGGUGGCGCGAUAGCGCCAAAAUCCUCAACCUCCAAUGCAUCCCACCACAUGAUGAUGCCUGAAGAGCCUUGGUUUUUUG — lower, -5.05
- GACCAAUCCGCCCUCAGAGCUCGAGAACAUCUUCGGAUGCAGAGAAGUCAGGCUUCGGUGGCGCGAUAGCGCCAACGUCCUCAACCUCCAAUGCAUCCCACCACAUGAUGAUGCCUGAAGAGCCUUGGUUUUUUG — higher, -0.16
- GACCAAUCUGCCCUUAGAGCUCGAGAACAUCUUCGGAUGCAGAGGAGGCAGGCUUCGGUGGCGCGAUAGCGCCAACGUCCUCAACCUCCAAUGCAUCCCACCACAUGAUGAUGCAUGAAGAGCCUUGGUUUUUUG — higher, -1.57
- GACCAAUCUGCCCUCAGAGCUCGAGAACAUCUUCGGCUGCAGAGGAGGCAGGCUUCGGUGGCGCGAUAGCGCCAACGUCCUCAACCUCCAAUGCAUCCCACCACAUGAUGAUGGCUGAAAAGUCUUGGUUUUUUG — lower, -5.25
